B1: human BLVRB (biliverdin reductase B) (Homo sapiens; S111A) (protein)
chain: MAVKKIAIFGATGQTGLTTLAQAVQAGYEVTVLVRDSSRLPSEGPRPAHVVVGDVLQAADVDKTVAGQDAVIVLLGTRNDLSPTTVMSEGARNIVAAMKAHGVDKVVACTAAFLLWDPTKVPPRLQAVTDDHIRMHKVLRESGLKYVAVMPPHIGDQPLTGAYTVTLDGRGPSRVISKHDLGHFMLRCLTTDEYDGHSTYPSHQYQ
notes: full length, 206 residues; codon-optimised, pET21b (T164S in pJ401k); N-terminal 6xHis tag removed with thrombin
B2: human BLVRB (biliverdin reductase B) (Homo sapiens; H153A) (protein)
chain: MAVKKIAIFGATGQTGLTTLAQAVQAGYEVTVLVRDSSRLPSEGPRPAHVVVGDVLQAADVDKTVAGQDAVIVLLGTRNDLSPTTVMSEGARNIVAAMKAHGVDKVVACTSAFLLWDPTKVPPRLQAVTDDHIRMHKVLRESGLKYVAVMPPAIGDQPLTGAYTVTLDGRGPSRVISKHDLGHFMLRCLTTDEYDGHSTYPSHQYQ
notes: as for B1
B3: human BLVRB (biliverdin reductase B) (Homo sapiens; T164A) (protein)
chain: MAVKKIAIFGATGQTGLTTLAQAVQAGYEVTVLVRDSSRLPSEGPRPAHVVVGDVLQAADVDKTVAGQDAVIVLLGTRNDLSPTTVMSEGARNIVAAMKAHGVDKVVACTSAFLLWDPTKVPPRLQAVTDDHIRMHKVLRESGLKYVAVMPPHIGDQPLTGAYAVTLDGRGPSRVISKHDLGHFMLRCLTTDEYDGHSTYPSHQYQ
notes: as for B1
B4: human BLVRB (biliverdin reductase B) (Homo sapiens; T164I) (protein)
chain: MAVKKIAIFGATGQTGLTTLAQAVQAGYEVTVLVRDSSRLPSEGPRPAHVVVGDVLQAADVDKTVAGQDAVIVLLGTRNDLSPTTVMSEGARNIVAAMKAHGVDKVVACTSAFLLWDPTKVPPRLQAVTDDHIRMHKVLRESGLKYVAVMPPHIGDQPLTGAYIVTLDGRGPSRVISKHDLGHFMLRCLTTDEYDGHSTYPSHQYQ
notes: as for B1
B5: human BLVRB (biliverdin reductase B) (Homo sapiens; T164S) (protein)
chain: MAVKKIAIFGATGQTGLTTLAQAVQAGYEVTVLVRDSSRLPSEGPRPAHVVVGDVLQAADVDKTVAGQDAVIVLLGTRNDLSPTTVMSEGARNIVAAMKAHGVDKVVACTSAFLLWDPTKVPPRLQAVTDDHIRMHKVLRESGLKYVAVMPPHIGDQPLTGAYSVTLDGRGPSRVISKHDLGHFMLRCLTTDEYDGHSTYPSHQYQ
notes: as for B1

substrate: Cc1cc2nc3c(=O)[nH]c(=O)nc-3n(C[C@H](O)[C@H](O)[C@H](O)COP(=O)(O)OP(=O)(O)OC[C@H]3O[C@@H](n4cnc5c(N)ncnc54)[C@H](O)[C@@H]3O)c2cc1C; assay: purified protein; assay type: biochemical, Homo sapiens; conditions: co-substrate NADPH

| Protein | Km [µM] | kcat [s⁻¹] |
| --- | --- | --- |
| B1 | 325 ± 96 | 0.021 ± 0.004 |
| B2 | 98 ± 11 | 0.059 ± 0.003 |
| B3 | 153 ± 18 | 0.063 ± 0.002 |
| B4 | 156 ± 18 | 0.049 ± 0.003 |
| B5 | 127 ± 15 | 0.039 ± 0.003 |
